Measured values published in US9732101B2, “Bioreversible boronates for delivery of molecules into cells” (WISCONSIN ALUMNI RESEARCH FOUNDATION, priority 2012, dated 2017).
Where two headings read alike, the source gives them in different places.

Experiments:
[1] = tested on: Pro-5 cells; experiment: Confocal microscopy of live cells; format: cell-based, Chinese hamster; conditions: 5 μM, 4 h
Description: Cell lines were obtained from American Type Culture Collection (Manassas, Va.) and were maintained according to the recommended procedures. Cells were grown in a cell culture incubator at 37° C. under CO2 (5% v/v) in flat-bottomed culture flasks. Cell medium was supplemented with GIBCO fetal bovine serum (FBS) (10% v/v), penicillin (100 units/mL), and streptomycin (100 μg/mL) in the appropriate cellular medium as follows: Pro-5, MEM α+ribonucleosides+deoxyribonucleosides; Lec-2, MEM α-ribonucleosides-deoxyribonucleosides; and K562, RPMI 1640. Cells were counted by hemocytometry for dispensing into 12-well plates (Corning Costar, Lowell, Mass.) or 8-well chambered coverglass slides (Nuc Lab-Tek II, Thermo Scientific).
Pro-5 cells were plated on Nunc Lab-tek II 8-well chambered coverglass 24 h before use and grown to 80% confluency. Cells were incubated with 5 μM BODIPY FL-labeled ribonucleases for 4 h. Cell nuclei were stained with Hoechst 33342 (Invitrogen, 2 μg/mL) for the final 15 min of incubation. Cells were then washed twice with PBS, suspended in PBS, and examined using a Nikon Eclipse C1 laser scanning confocal microscope. Results are illustrated in FIG. 4B.

[2] = tested on: K-562 cells; experiment: Cell-proliferation assay, [methyl-3H]thymidine incorporation; format: cell-based, human
Description: The effect of unmodified and boronated RNase A on the proliferation of K-562 cells was assayed as described in For assays, 5 μL of a solution of the ribonuclease or PBS (control) was added to 95 μL of cells (5.0×10^4 cells/mL). For co-treatment assays with fructose, ribonucleases were first serially diluted at 2× concentration, followed by addition of an equal volume of 2 M fructose in PBS to each ribonuclease dilution, resulting in a 1× ribonuclease dilution as before but now containing 1 M fructose. Then, 5 μL of each dilution was added to cells as above, including a control of PBS containing 1 M fructose. Because 5 μL of samples were added to 95 μL of cells, the final concentration of fructose in each well was 50 mM.
After a 44-h incubation, K-562 cells were treated with [methyl-^3H]thymidine for 4 h, and the incorporation of radioactive thymidine into cellular DNA was quantitated by liquid scintillation counting. The results are shown as the percentage of [methyl-^3H]thymidine incorporated relative to control cells treated with PBS in FIG. 5. […] Values for IC50 were calculated by fitting the curves by nonlinear regression to the equation: y=100%/(1+10^(log(IC^50^)-log [ribonuclease])h), in which y is the total DNA synthesis following the [methyl-^3H]thymidine pulse and h is the slope of the curve.

[3] = Fluorescence polarization assay of binding to GD3 ganglioside-labeled liposomes; set-up: species or system bovine; conditions: for affinity for GD3 ganglioside relative to binding of a single benzoboroxole to Neu5Ac: compared with Ka of Table 1
Description: Liposomes were formed by transferring DOPC (dissolved in chloroform solution) and GD3 gangliosides (dissolved in 63:35:5 chloroform/methanol/water) to glass tubes and drying them under Ar (g) and then under vacuum. Lipids were re-suspended in 25 mM HEPES buffer, pH 7.0, containing NaCl (75 mM). The solution of lipids was mixed by vortexing for 2 min, and incubated at 37° C. for 1 h. For DOPC liposomes, DOPC was resuspended at a concentration of 5 mM. For GD3 ganglioside-labeled liposomes, DOPC and GD3 gangliosides were mixed at 3 mM and 2 mM concentrations, respectively. Large unilammelar vesicles were formed by extrusion through a 0.1-μm polycarbonate filter from Whatman (GE Healthcare, Piscataway, N.J.). This process produces a population of vesicles of near uniform size (˜100-150 nm diameter as measured by dynamic light scattering). A portion of the DOPC lipids before extrusion were aliquoted as a control.
Fluorescence polarization assays were performed using 50 nM BODIPY FL-labeled unmodified and benzoboroxole-boronated RNase A in black NBS 96-well plates (Corning Costar, Lowell, Mass.). These ribonucleases were incubated with DOPC liposomes (625 μM total lipid) or GD3 ganglioside-labeled liposomes (375 μM DOPC, 250 μM GD3 ganglioside=625 μM total lipid) in 25 mM HEPES buffer, pH 7.0, containing NaCl (75 mM) in the absence or presence of fructose (10 mM). In control wells, ribonucleases were incubated with non-extruded DOPC lipids. Fluorescence polarization at 470/535 nm with a G-factor of 1.257 was recorded after shaking the plate briefly and incubating at ambient temperature for 1 h. Control well polarization was subtracted from experimental well polarization for each ribonuclease. The assay was performed in triplicate.
The affinity of benzoboroxole-boronated RNase A for GD3 ganglioside-labeled liposomes was assessed by using serially diluted liposomes. GD3 ganglioside-labeled liposomes were serially diluted in 25 mM HEPES, pH 7.0, containing 75 mM with dilutions of 62.5 nM-1250 μM total lipid. […] Control DOPC liposomes (with no GD3 ganglioside) were likewise diluted in the same buffer, producing solutions of 62.5 nM-1250 μM total lipid. Liposomes were then incubated with 50 nM BODIPY FL-labeled benzoboroxole-boronated RNase A in the same buffer in a black NBS 96-well plate. Fluorescence polarization was recorded after shaking the plate briefly and incubating at ambient temperature for 35 min. Fluorescence polarization from GD3 ganglioside-labeled liposomes was subtracted from that from DOPC-only liposomes, thereby correcting for binding to DOPC and for changes in solution viscosity. The assay was performed in duplicate. The fraction of labeled ribonuclease bound for each sample well was calculated by dividing its polarization from the polarization of ribonucleases incubated with the highest concentration of GD3 ganglioside (set at 100% bound). The value of Kd was calculated by plotting the fraction bound against the concentration of GD3 ganglioside (see FIG. 21) and fitting the data to a binding isotherm as described in ref. [46] to give Kd=(54±11) μM.

B1: benzoboroxole-boronated RNase A: RNase A with 5-amino-2-hydroxymethylphenylboronic acid conjugated to protein carboxyl groups by carbodiimide condensation (conjugate, UniProt P61823 27-150, looked up)
Ribonuclease pancreatic: KETAAAKFERQHMDSSTSAASSSNYCNQMMKSRNLTKDRCKPVNTFVHESLADVQAVCSQKNVACKNGQTNCYQSYSTMSITDCRETGSSKYPNCAYKTTQANKHIIVACEGNPYVPVHFDASV
modifications: benzoboroxole conjugated to carboxyl groups
notes: RNase A with 5-amino-2-hydroxymethylphenylboronic acid conjugated to protein carboxyl groups by carbodiimide condensation
For B1, the intracellular staining pattern [1] was “punctate staining”, the IC50 ([2]; [methyl-3H]thymidine incorporation, 44-h incubation, read-out: IC50, inhibition of K-562 cell proliferation) was 4 ± 0.3 µM and the IC50 ([2]; fructose 50 mM, read-out: IC50, inhibition of K-562 cell proliferation in the presence of fructose) was 9 ± 1 µM. The Kd ([3]; BODIPY FL-labeled protein 50 nM, 25 mM HEPES buffer, pH 7.0, NaCl 75 mM) was 54 ± 11 µM, the “affinity for GD3 ganglioside relative to binding of a single benzoboroxole to Neu5Ac” value ([3]; listed as benzoboroxole-boronated protein) was roughly 430 fold and the “affinity for GD3 ganglioside relative to binding of a single benzoboroxole to Neu5Ac” value ([3]; listed as boronated protein) was roughly 440 fold. For the same molecule, the “effect of boronation on affinity for the ganglioside” value ([3]; fluorescence polarization, absence of fructose, versus unmodified RNase A) was “increased the affinity” and the “effect of fructose on the increased affinity for the ganglioside” value ([3]; fluorescence polarization, fructose 10 mM) was “abrogated”.
